Assay results as given in paper PMC7117912.

Assays:
[1] = target: HLA-A*02:01 (human MHC I heavy chain ectodomain, amino acids 1-278) refolded with human β2-microglobulin (human)
[2] = target: H2-D^b (mouse MHC I heavy chain ectodomain) refolded with human β2-microglobulin (mouse | human); experiment: SEC
[3] = target: H2-D^b (mouse MHC I heavy chain ectodomain) refolded with human β2-microglobulin (mouse | human); experiment: fluorescence polarisation
[4] = target: HLA-A*02:01 (human MHC I heavy chain ectodomain, amino acids 1-278) refolded with human β2-microglobulin (human); experiment: fluorescence polarisation

Substance | dissociation rate constant of fluorescent peptide FLPSDC*FPSF from HLA-A*02:01 (300 nM) with 1 µM TAPBPR and 1000-fold excess of competitor peptide (uncatalyzed 1.90 × 10^-3 s^-1) [1] | reduction of the amount of complex against TAPBPR^wt (SEC peak area) [2] | percent of fluorescent peptide released at 1 µM TAPBPR [3] | dissociation rate constant of fluorescent peptide FLPSDC*FPSF from HLA-A*02:01 (300 nM) with 1 µM TAPBPR and 1000-fold excess of competitor peptide [1] | percent of total MHC I-associated peptide dissociated at saturation (3 µM TAPBPR) [3] | percent of total MHC I-associated peptide dissociated at saturation (3 µM TAPBPR) [4]
TAPBPR^Tsn-SL (human TAPBPR lumenal domain with the scoop loop replaced by the corresponding shorter loop of tapasin) (from UniProt Q9BX59 33-401) (domain or fragment) | 0.0263 s⁻¹ | 40% | 12% |  |  | 
TAPBPR^wt (wildtype human TAP-binding protein-related, ER-lumenal domain) (from UniProt Q9BX59 33-401) (domain or fragment) |  |  | 60% | 0.0158 s⁻¹ | 70% | 80%
TAPBPR^ΔSL (human TAPBPR lumenal domain with the scoop loop replaced by three glycine residues) (from UniProt Q9BX59 33-401) (domain or fragment) |  | 90% |  | 0.00852 s⁻¹ |  | 
